Like-named read-outs stand apart in the source and are kept apart here.
Experiments:
[1] = molecular target: T1, human PD-1 (human, UniProt Q15116 25-288); assay: cell-based or functional assay
[2] = molecular target: T1, human PD-1; assay: flow cytometry on Jurkat cells overexpressing human PD-1
[3] = molecular target: T2, Human PD-1 protein (His Tag) (human, UniProt Q15116 25-167); assay: ELISA, plate coated with human PD-1 (his tag), anti-human IgG4 Fc-HRP
T2 construct: also called PD1-H5221; PD-1 antigen; not shown: His tag

[4] = molecular target: T3, IL-2Rβ/γ on M07e cells (human, UniProt P14784 27-551; P31785 23-369); assay: cell-based or functional assay
T3 sequence (looked up) 1: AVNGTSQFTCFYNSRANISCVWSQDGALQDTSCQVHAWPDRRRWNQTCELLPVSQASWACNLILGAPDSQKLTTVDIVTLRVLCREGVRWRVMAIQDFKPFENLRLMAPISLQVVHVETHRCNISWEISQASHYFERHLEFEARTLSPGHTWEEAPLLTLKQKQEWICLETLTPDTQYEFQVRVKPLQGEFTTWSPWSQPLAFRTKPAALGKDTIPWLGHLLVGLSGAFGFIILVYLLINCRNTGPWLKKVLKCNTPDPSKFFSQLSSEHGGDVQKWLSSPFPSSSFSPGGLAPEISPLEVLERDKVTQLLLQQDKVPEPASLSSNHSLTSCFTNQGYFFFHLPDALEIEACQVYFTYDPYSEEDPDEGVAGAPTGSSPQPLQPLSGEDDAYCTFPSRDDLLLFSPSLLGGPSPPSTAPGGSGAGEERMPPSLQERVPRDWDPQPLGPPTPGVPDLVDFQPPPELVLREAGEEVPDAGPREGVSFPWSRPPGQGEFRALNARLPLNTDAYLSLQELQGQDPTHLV
T3 sequence (looked up) 2: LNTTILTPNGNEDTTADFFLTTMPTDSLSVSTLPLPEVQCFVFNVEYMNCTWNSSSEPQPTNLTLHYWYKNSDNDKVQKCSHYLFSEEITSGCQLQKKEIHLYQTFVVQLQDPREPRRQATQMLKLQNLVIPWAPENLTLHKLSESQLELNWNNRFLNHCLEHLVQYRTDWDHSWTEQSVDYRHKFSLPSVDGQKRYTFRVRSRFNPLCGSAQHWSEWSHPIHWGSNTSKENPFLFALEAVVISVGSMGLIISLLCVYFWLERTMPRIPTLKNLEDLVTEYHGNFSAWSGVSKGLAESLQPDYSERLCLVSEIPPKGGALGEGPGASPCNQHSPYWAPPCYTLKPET

[5] = molecular target: T3, IL-2Rβ/γ on M07e cells; assay: cell-based or functional assay; remark: listed apart in the source
[6] = molecular target: T3, IL-2Rβ/γ on M07e cells; assay: cell-based or functional assay; remark: listed apart in the source
[7] = molecular target: T1, human PD-1; assay: cell-based or functional assay; remark: listed apart in the source
[8] = molecular target: T1, human PD-1; assay: cell-based or functional assay; remark: listed apart in the source
[9] = molecular target: T1, human PD-1; assay: cell-based or functional assay; remark: listed apart in the source
[10] = molecular target: T4, human IL-2Rα receptor protein (Sino Biological, 10165-H08H) (human, UniProt P01589 22-213); assay: SPR Biacore 8K, fusion protein captured by anti-human IgG (Fc), IL-2Rα as analyte
T4 construct: also called CD25
T4 sequence (looked up): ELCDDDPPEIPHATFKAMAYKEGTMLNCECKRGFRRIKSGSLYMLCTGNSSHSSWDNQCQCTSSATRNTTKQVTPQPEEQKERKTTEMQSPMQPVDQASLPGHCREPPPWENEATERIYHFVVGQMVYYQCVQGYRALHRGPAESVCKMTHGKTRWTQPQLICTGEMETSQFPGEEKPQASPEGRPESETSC

[11] = molecular target: Human PD-1 antigen protein (Sino Biological, 10377-H08H) (human, UniProt Q15116 25-167); assay: SPR Biacore 8K, fusion protein captured by anti-human IgG (Fc), human PD-1 as analyte
[12] = molecular target: T5, human IL-2Rβ/γ receptor heterodimer protein (Acrosystem, ILG-H5283) (human, UniProt P14784 27-239; P31785 23-262, limits assumed); assay: SPR Biacore 8K, fusion protein captured by anti-human IgG (Fc), human IL-2Rβ/γ heterodimer as analyte
T5 sequence (looked up) 1: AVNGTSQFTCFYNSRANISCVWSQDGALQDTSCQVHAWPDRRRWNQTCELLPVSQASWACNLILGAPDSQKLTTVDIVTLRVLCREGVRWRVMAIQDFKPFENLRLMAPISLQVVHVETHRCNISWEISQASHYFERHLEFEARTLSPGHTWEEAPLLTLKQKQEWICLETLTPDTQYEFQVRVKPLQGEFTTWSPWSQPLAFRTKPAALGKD
T5 sequence (looked up) 2: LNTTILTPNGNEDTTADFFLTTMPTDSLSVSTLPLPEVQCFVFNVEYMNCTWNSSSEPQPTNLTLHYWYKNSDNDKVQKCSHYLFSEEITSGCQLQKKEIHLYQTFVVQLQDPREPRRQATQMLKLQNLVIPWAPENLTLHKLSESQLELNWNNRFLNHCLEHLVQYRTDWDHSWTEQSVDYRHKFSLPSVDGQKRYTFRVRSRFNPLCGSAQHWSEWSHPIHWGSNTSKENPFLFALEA

Chain of Human PD-1 antigen protein (Sino Biological, 10377-H08H) (Q15116 25-167 limits assumed): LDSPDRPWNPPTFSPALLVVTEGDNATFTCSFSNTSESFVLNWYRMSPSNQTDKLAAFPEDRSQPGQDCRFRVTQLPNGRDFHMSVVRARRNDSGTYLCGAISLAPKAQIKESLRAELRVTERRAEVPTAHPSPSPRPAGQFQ
T1 sequence (Q15116 25-288 limits assumed): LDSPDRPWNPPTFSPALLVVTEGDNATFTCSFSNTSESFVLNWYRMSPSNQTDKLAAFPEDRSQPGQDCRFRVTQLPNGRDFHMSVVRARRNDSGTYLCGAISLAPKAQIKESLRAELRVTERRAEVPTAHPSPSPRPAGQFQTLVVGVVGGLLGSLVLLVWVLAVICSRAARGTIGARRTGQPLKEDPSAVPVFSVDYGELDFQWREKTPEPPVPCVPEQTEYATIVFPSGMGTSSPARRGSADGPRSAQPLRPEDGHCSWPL
T2 sequence (Q15116 25-167): as the sequence (Q15116 25-167 limits assumed) above

B1: A6_hIgG4 (antibody, V domains shown)
VH: EVQLVESGGGLVQAGGSLRLSCAVSGRTFSSAAMGWFRQAPGKEREFVAAISWSFGSTYYADSVKGRFTISRDNAKNTVYLQMNSLKPEDTAVYYCAADPSIETMGGGWDYWGQGTQVTVSS
IC50, PD-1/PD-L1 NFAT reporter gene system [1]: 1.35 nM
EC50 [2]: 1.09 nM
EC50 [3]: 0.0861 nM

B2: PEGylated IL-2 mutant (PEG-IL-2v) (ligand)
chain: APASSSTKKTQLQLEHLLLDLQMILQGISNYKNPKLTRMLTAKFYMPKKATELKHLQCLEEELKPLEEVLQGAQSKNFHLRPRDLISNINVIVLELKGSETTFMCEYADETATIVEFLNRWITFAQSIISTLT
modifications: PEGylated (site not stated)
M07e proliferation, EC50 [4]: 20.9 nM
M07e proliferation, Maximal fluorescence value (Max Lum) [4]: 4.45e+06 Lum
M07e-hPD1 proliferation, EC50 [4]: 13.3 nM
M07e-hPD1 proliferation, Maximal fluorescence value (Max Lum) [4]: 7.94e+06 Lum
M07e cell proliferation activity (%) at 0.46 nM [5]: 0.7%
M07e cell proliferation activity (%) at 1.4 nM [5]: 2.6%
M07e cell proliferation activity (%) at 4.1 nM [5]: 11.2%
M07e cell proliferation activity (%) at 12 nM [5]: 34.2%
M07e cell proliferation activity (%) at 37 nM [5]: 68.2%
M07e cell proliferation activity (%) at 111 nM [5]: 88.3%
M07e cell proliferation activity (%) at 333 nM [5]: 102%
M07e cell proliferation activity (%) at 1000 nM [5]: 89%
M07e-hPD-1 cell proliferation activity (%) at 0.0001 nM [5]: 1.9%
M07e-hPD-1 cell proliferation activity (%) at 0.001 nM [5]: 1.1%
M07e-hPD-1 cell proliferation activity (%) at 0.01 nM [5]: 0.5%
M07e-hPD-1 cell proliferation activity (%) at 0.1 nM [5]: 0.4%
M07e-hPD-1 cell proliferation activity (%) at 1 nM [5]: 3.3%
M07e-hPD-1 cell proliferation activity (%) at 10 nM [5]: 33.3%
M07e-hPD-1 cell proliferation activity (%) at 100 nM [5]: 104%
M07e-hPD-1 cell proliferation activity (%) at 1000 nM [5]: 100%
M07e-hPD-1 cell proliferation ratio (%) at 0.0001 nM [6]: -2.2%
M07e-hPD-1 cell proliferation ratio (%) at 0.001 nM [6]: -2.1%
M07e-hPD-1 cell proliferation ratio (%) at 0.01 nM [6]: -2.6%
M07e-hPD-1 cell proliferation ratio (%) at 0.1 nM [6]: -2.2%
M07e-hPD-1 cell proliferation ratio (%) at 1 nM [6]: -0.6%
M07e-hPD-1 cell proliferation ratio (%) at 10 nM [6]: 24.4%
M07e-hPD-1 cell proliferation ratio (%) at 100 nM [6]: 76.7%
M07e-hPD-1 cell proliferation ratio (%) at 1000 nM [6]: 89.1%

B3: A17_hIgG4 (antibody, V domains shown)
VH: EVQVVESGGGLVQPGGSLRLSCVASGLTFSDYSMSWYRQAPGKERELVAIISGSGVIAHYVDSVKGRFTISRDNAKSTVYLQMVSLKPEDRGVYYCRAVSDWDDYWGQGTQVTVSS
IC50, PD-1/PD-L1 NFAT reporter gene system [1]: 1.2 nM
EC50 [2]: 0.357 nM
EC50 [3]: 0.061 nM

B4: A-PC (Fc fusion)
chain (part 1 of 2): EVQLVESGGGLVQPGGSLRLSCAASGLTFSDYSMSWYRQAPGKGRELVAIISGSGVITHYVDSVKGRFTISRDNAKNTLYLQMRSLRAEDTAVYYCRAVSDWEDYWGQGTQVTVSS
chain (part 2 of 2): GGGGSGGGGSGGGGSAPASSSTKKTQLQLEHLLLDLQMILQGISNYKNPKLTRMLTAKFYMPKKATELKHLQCLEEELKPLEEVLQGAQSKNFHLRPRDLISNINVIVLELKGSETTFMCEYADETATIVEFLNRWITFAQSIISTLT
chain: B4 chain (part 1 of 2)
notes: also called positive control molecule A-PC; PD-1-IL-2v; not shown: IgG1 hinge (C220S) + Fc Knob chain (L234A, L235A, S354C, T366W, EU); D356/L358 or E356/M358 ver; IgG1 hinge (C220S) + Fc Hole chain (L234A, L235A, Y349C, T366S, L368A, Y407V; may have H435R, Y436F; EU)
M07e-hPD-1 cell proliferation activity (%) at 0.0001 nM [7]: 1%
M07e-hPD-1 cell proliferation activity (%) at 0.001 nM [7]: 3%
M07e-hPD-1 cell proliferation activity (%) at 0.01 nM [7]: 28%
M07e-hPD-1 cell proliferation activity (%) at 0.1 nM [7]: 87%
M07e-hPD-1 cell proliferation activity (%) at 1 nM [7]: 99%
M07e-hPD-1 cell proliferation activity (%) at 10 nM [7]: 98%
M07e-hPD-1 cell proliferation activity (%) at 100 nM [7]: 102%
M07e-hPD-1 cell proliferation activity (%) at 1000 nM [7]: 100%
M07e cell proliferation activity (%) at 0.46 nM [5]: 0.1%
M07e cell proliferation activity (%) at 1.4 nM [5]: 3.6%
M07e cell proliferation activity (%) at 4.1 nM [5]: 28.1%
M07e cell proliferation activity (%) at 12 nM [5]: 41.6%
M07e cell proliferation activity (%) at 37 nM [5]: 71.7%
M07e cell proliferation activity (%) at 111 nM [5]: 87.2%
M07e cell proliferation activity (%) at 333 nM [5]: 89.8%
M07e cell proliferation activity (%) at 1000 nM [5]: 100%
M07e-hPD-1 cell proliferation ratio (%) at 0.0001 nM [8]: 2.4%
M07e-hPD-1 cell proliferation ratio (%) at 0.001 nM [8]: 4.9%
M07e-hPD-1 cell proliferation ratio (%) at 0.01 nM [8]: 33.7%
M07e-hPD-1 cell proliferation ratio (%) at 0.1 nM [8]: 79%
M07e-hPD-1 cell proliferation ratio (%) at 1 nM [8]: 95.9%
M07e-hPD-1 cell proliferation ratio (%) at 10 nM [8]: 113%
M07e-hPD-1 cell proliferation ratio (%) at 100 nM [8]: 112%
M07e-hPD-1 cell proliferation ratio (%) at 1000 nM [8]: 100%
M07e-hPD-1 cell proliferation ratio (%) at 0.0001 nM [9]: 4%
M07e-hPD-1 cell proliferation ratio (%) at 0.001 nM [9]: 8.1%
M07e-hPD-1 cell proliferation ratio (%) at 0.01 nM [9]: 29.3%
M07e-hPD-1 cell proliferation ratio (%) at 0.1 nM [9]: 99.5%
M07e-hPD-1 cell proliferation ratio (%) at 1 nM [9]: 112%
M07e-hPD-1 cell proliferation ratio (%) at 10 nM [9]: 107%
M07e-hPD-1 cell proliferation ratio (%) at 100 nM [9]: 105%
M07e-hPD-1 cell proliferation ratio (%) at 1000 nM [9]: 100%
binding result [10]: no binding
Kd [11]: 19.4 nM
koff [11]: 0.00182 s⁻¹
kon [11]: 93700 M⁻¹ s⁻¹
Kd [12]: 0.253 nM
koff [12]: 2.23e-05 s⁻¹
kon [12]: 88100 M⁻¹ s⁻¹
